The text below walks through data of patent publication US6329500A, “Transforming growth factor-β binding site” (University of Virginia Patent Foundation, priority 1999, dated 2001).

Experiment [1] deals with T1, TGF-β2 (Homo sapiens, UniProt P61812).
T1 construct: purchased Genzyme (Cambridge, Mass.)
T1 sequence (P61812 303-414 limits assumed): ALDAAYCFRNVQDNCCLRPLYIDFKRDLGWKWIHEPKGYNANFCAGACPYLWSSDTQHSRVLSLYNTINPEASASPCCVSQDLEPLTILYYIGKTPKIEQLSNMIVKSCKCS
As to the kind of experiment: Ligand blot analysis of 125I-TGF-β2 binding to PVDF-immobilized proteins. Conditions: SDS-PAGE, PVDF membrane, 125I-TGF-β2 20 pM, 2 h at 25° C. As to the method:
To block free sulfhydryls, some samples were treated with 5 mM IAM for 2 h at 25° C. Equivalent amounts of each protein ([…]) were subjected to SDS-PAGE on 10% slabs. IAM-treated GST-α2 M-peptide fusion proteins were subjected to SDS-PAGE as well. All samples were electro-transferred to PVDF membranes. The membranes were blocked with 5% milk and 0.1% Tween 20 in PBS for 12 h at 4° C. and then rinsed with 0.1% Tween 20 in PBS (PBS-T). […] Biophys. Res. Commun. […] NGF-β was radioiodinated with Iodogen, to a specific activity of 2-5 μCi/μg, using the method recommended by the manufacturer. […] After washing the membranes with PBS-T, bound radioligands were detected by Phosphorlmager analysis.

A further experiment has as its system FBHE cells. As to the kind of experiment: Endothelial cell proliferation assay, TGF-β alone. The class given is cell-based, bovine. Conditions: TGF-β 10 pM, 1 h pulse. On the procedure:
(§1) Fetal bovine heart endothelial (FBHE) cells were cultured in DMEM supplemented with 10% FBS, 20 ng/ml acidic fibroblast growth factor, and 80 ng/ml basic fibroblast growth factor and passaged at subconfluence with trypsin-EDTA. To perform proliferation assays, the cells were plated at a density of 2×10^4 /well (24 well plates) in DMEM supplemented with 0.2% FBS. […] The fusion proteins were preincubated with the TGF-β for 15 min prior to addition to the cultures. At the completion of an incubation, the cultures were washed 3 times with serum-free DMEM and then allowed to incubate in DMEM with 0.2% FBS for 30 h. [^3 H]Thymidine was added for an additional 18 h; the cells were then harvested and [^3 H]thymidine incorporation was quantitated.

Experiment [2] deals with T1, TGF-β2. As to conditions: read-out: KD for TGF-β2 (either TGF-β isoform); cited from earlier work.
The target of experiment [3] is T2, TGF-β1 (Homo sapiens, UniProt P01137).
T2 construct: purchased R&D Systems (Minneapolis, Minn.)
As to conditions: read-out: KD for TGF-β1 (either TGF-β isoform); cited from earlier work.

The target of experiment [4] is T1, TGF-β2. In words: Endothelial cell proliferation assay, neutralization of TGF-β2 by fusion proteins. The class given is cell-based. On the procedure:
as §1

For experiment [5], the target named is T2, TGF-β1. In words: Endothelial cell proliferation assay, neutralization of TGF-β1 by fusion proteins. The class given is cell-based. As to the method: as §1
Experiment [6] has as its target T1, TGF-β2. In words: 125I-TGF-β2 binding to immobilized α2M-MA, solution-phase competition. Conditions: increasing concentrations (4-250 nM). On the procedure: The wells were washed three times with PBS-T and blocked with PBS-T for 16 h at 4° C. […] In the presence of a fusion protein (FP) which binds TGF-β, the total concentration of TGF-β [βT ] was related to [βF ], at equilibrium, as follows: [βT ]=[βF ](1+[FP]/KI).

The target of experiment [7] is T1, TGF-β2. In words: Binding of 125I-TGF-β2 to FP3 and FP4 in solution as determined by FPLC on Superose-12. As to conditions: fusion protein 0.5 μM, 125I-TGF-β2 0.5 nM, 30 min 37° C., n=2. As to the method:
The flow rate was 0.4 ml/min. […] To calibrate the FPLC, the following proteins were subjected to chromatography on the same column: soybean trypsin inhibitor (Mr~21,500, Ve of 14.1 ml), ovalbumin (Mr~45,000, Ve of 12.9 ml), BSA (Mr~66,000, Ve of 12.1 ml), and BSA dimer (Mr~132,000, Ve of 10.9 ml).

For a further experiment, the system named is RAW 264.7 cells. In words: NO synthesis (nitrite in conditioned medium) by RAW 264.7 cells. Conditions: 250 nM, SFM, 24 h. The class given is cell-based, murine. On the procedure: NO synthesis by RAW 264.7 cells was quantitated by measuring the stable NO oxidation product, nitrite, in conditioned medium, as previously described (Anal. Biochem. 126, 131-138 (1982)). […] The fusion proteins were purified and detergent-free. After 24 h, conditioned medium (100 μl) was recovered and nitrite was measured. […] Biol, Chem. 270, 21919-21927 (1995)). The α2 M-induced increase in RAW 264.7 cell NO synthesis is inhibited by the NOS inhibitor, N^G -monomethyl-L-arginine.

B1: FP2: GST-fusion protein with human α2M amino acids 364-613 (protein)
chain: RGNEANYYSNATTDEHGLVQFSINTTNVMGTSLTVRVNYKDRSPCYGYQWVSEEHEEAHHTAYLVFSPSKSFVHLEPMSHELPCGHTQTVQAHYILNGGTLLGLKKLSFYYLIMAKGGIVRTGTHGLLVKQEDMKGHFSISIPVKSDIAPVARLLIYAVLPTGDVIGDSAKYDVENCLANKVDLSFSPSQSLPASHAHLRVTAAPQSVCALRAVDQSVLLMKPDAELSASSVYNLLPEKDLTGFPGPLND
modifications: free sulfhydryls blocked with iodoacetamide (IAM)
With B1, in the experiment with TGF-β2 [1], the “125I-TGF-β2 binding, ligand blot” value is “did not bind”.

B2: TGF-β2: transforming growth factor-β2 from Genzyme (protein, UniProt P61812 303-414, looked up)
Transforming growth factor …: ALDAAYCFRNVQDNCCLRPLYIDFKRDLGWKWIHEPKGYNANFCAGACPYLWSSDTQHSRVLSLYNTINPEASASPCCVSQDLEPLTILYYIGKTPKIEQLSNMIVKSCKCS
As to B2, the “Decrease of [3H]thymidine incorporation” value in the experiment with FBHE cells is 57%.

B3: FP5: GST-fusion protein with human α2M amino acids 1053-1302 (protein)
chain: DNGCFRSSGSLLNNAIKGGVEDEVTLSAYITIALLEIPLTVTHPVVRNALFCLESAWKTAQEGDHGSHVYTKALLAYAFALAGNQDKRKEVLKSLNEEAVKKDNSVHWERPQKPKAPVGHFYEPQAPSAEVEMTSYVLLAYLTAQPAPTSEDLTSATNIVKWITKQQNAQGGFSSTQDTVVALHALSKYGAATFTRTGKAAQVTIQSSGTFSSKFQVDNNNRLLLQQVSLPELPGEYSMKVTGEGCVYLQ
modifications: free sulfhydryls blocked with iodoacetamide (IAM)
Turning to B3, the “125I-TGF-β2 binding, ligand blot” value with TGF-β2 [1] is listed as “did not bind”.

B4: FP1: GST-fusion protein with human α2M amino acids 122-415 (protein)
chain: KFRVVSMDENFHPLNELIPLVYIQDPKGNRIAQWQSFQLEGGLKQFSFPLSSEPFQGSYKVVVQKKSGGRTEHPFTVEEFVLPKFEVQVTVPKIITILEEEMNVSVCGLYTYGKPVPGHVTVSICRKYSDASDCHGEDSQAFCEKFSGQLNSHGCFYQQVKTKVFQLKRKEYEMKLHTEAQIQEEGTVVELTGRQSSEITRTITKLSFVKVDSHFRQGIPFFGQVRLVDGKGVPIPNKVIFIRGNEANYYSNATTDEHGLVQFSINTTNVMGTSLTVRVNYKDRSPCYGYQWVS
modifications: free sulfhydryls blocked with iodoacetamide (IAM)
As for B4, the “125I-TGF-β2 binding, ligand blot” value with TGF-β2 [1] is recorded as “did not bind”.

B5: MUG: monomeric murine homologue of human α2M, purified from plasma of CD-1 female mice (protein)
chain: DSKYMVLVPSQLYTETPEKICLHLYQLNETVTVTASLVSQSGRKNLFDELVLDKDLFQCVSFIIPRLSSSDEEDFLYVDIKGPTHEFSKRKAVLVKNKESVVFVQTDKPVYKPGQSVKFRVVSMDKMLRPLNELLPLAYIEDPKKNRIMQWRDIKTENGLKQMSFSLAAEPIQGPYKIVVHKESGEKEEHSFTVMEFVLPRFNVDLKVPNAMSVNDEVLSVTACGKYTYGKPVPGHVKINVCRETETGCREVNSQLDNNGCSTQEVNITELQSKKRNYEVQLFHVNATVTEEGTGLEFSRSGTTKIERITNKLIFLKADSHFRHGIPFFVKVRLVDIKGDPIPNEKVFIKAQELSYTSATTTDQHGLAEFSIDTTCISGSSLHIKVNHKEEDSCSYFYCMEERHASAKHVAYAVYSLSKSYIYLDTETSSILPCNQIHTVQAHFILKGDLGVLKELIFYYLVMAQGSIIQTGNHTHQVEPGEAPVKGKFALEIPVEFSMVPMAKMLIYTILPDGEVIADSVNFEIEKCLRNKVDLRFSTSQSLPASQTRLQVTASPQSLCGLRAVDQSVLLLKPESELSPSWIYNLPGMQQNKFVPSSRLSEDQEDCILYSSWLAEKHTNLVPHGTEKDVYRYVEDMGLTAFTNLMIKLPIICFDYGMVPISAPRVEFDLAFTPEISWSLRTTLSKRPEEPPRKDPSSNDPLTETIRKYFPETWVWDIVTVNSTGLAEVEMTVPDTITEWKAGALCLSNDTGLGLSSVVPLQAFKPFFVEVSLPYSVVRGEAFMLKATVMNYLPTSMQMSVQLEASPDFTAVPVGDDQDSYCLSANGRHTSSWLVTPKSLGNVNFSVSAEAQQSSEPCGSEVATVPETGRKDTVVKVLIVEPEGIKQEHTFSSLFCASDAEISEKMSLVLPPTVVKDSARAHFSVMGDILSSAIRNTQNLLHMPYGCGEQNMVLFAPNIYVLKYLNETQQLTQKIKTKALGFLRAGYQRELNYKHKDGSYSAFGDQNGEREGNTWLTAFVLKSFAQARAFIFIDESHITHAFTWLSQKQKDNGCFRSSGSLFNNAMKGGVDDEMTLSAYITMALLESSLPATHPVVSKALSCLESSWKTIEQERNASFVYTKALMAYAFALAGNQNKRDEILKSLDEEAIKENNSIHWKRPQKSRKSEHHLYKPQASSAEVEMNAYVVLARLTAQPAPSPEDLTLSMSTIMWLTKQQNSNGGFSSTQDTVVALDALSKYGAVTFSRSQKTTLVTIQSTGSFSQKFQVENSNRLLLQQVALPDIPGDYTISVSGEGCVYAQTMLRYNMHLEKQLSAFAIWVQTVPLTCNNPKGHNSFQISLEISYTGSRPASNMVIADVKMLSGFIPLKPTVKKLERLEHVSRTEVSNNNVLIYLDQVTNQTLAFSFIIQQDIPVRNLQPAIVKVYDYYETDEMAFAEYSSPCSTDKQNV
For B5, in the experiment with TGF-β2 [1], the “125I-TGF-β2 binding, ligand blot” value is recorded as “only trace levels”. For the same molecule, the Kd with TGF-β2 [2] and with TGF-β1 [3] was roughly 1000 nM throughout.

B6: FP4: GST-fusion protein with human α2M amino acids 798-1082 (protein)
chain: CIRVSVQLEASPAFLAVPVEKEQAPHCICANGRQTVSWAVTPKSLGNVNFTVSAEALESQELCGTEVPSVPEHGRKDTVIKPLLVEPEGLEKETTFNSLLCPSGGEVSEELSLKLPPNVVEESARASVSVLGDILGSAMQNTQNLLQMPYGCGEQNMVLFAPNIYVLDYLNETQQLTPEIKSKAIGYLNTGYQRQLNYKHYDGSYSTFGERYGRNQGNTWLTAFVLKTFAQARAYIFIDEAHITQALIWLSQRQKDNGCFRSSGSLLNNAIKGGVEDEVTLSAYI
modifications: free sulfhydryls blocked with iodoacetamide (IAM)
As to B6, in the experiment with TGF-β2 [1], the “125I-TGF-β2 binding, ligand blot” value is reported as “did not bind”. The [3H]thymidine incorporation (% control) was 38 ± 6% in the experiment with TGF-β2 [4] (FBHE cells, fusion protein (0.2 μM) + TGF-β2 (10 pM), 1 h pulse) and 31 ± 4% with TGF-β1 [5] (FBHE cells, fusion protein (0.2 μM) + TGF-β1 (10 pM), 1 h pulse). Also, the “Effect on TGF-β2 activity in FBHE proliferation assay” value with TGF-β2 [4] (fusion protein 200 nM, TGF-β2 10 pM) is listed as “No change in TGF-β activity”. The “Effect on TGF-β1 activity in FBHE proliferation assay” value in the experiment with TGF-β1 [5] (fusion protein 200 nM, TGF-β1 10 pM) was “No change in TGF-β activity”. In the experiment with TGF-β2 [6], the “Inhibition of 125I-TGF-β2 binding to immobilized α2M-MA” value is on record as “did not inhibit”. In addition, in the experiment with TGF-β2 [7], the “125I-TGF-β2 recovered (co-eluted) with the fusion protein” value worked out at 6%. The “Nitrite production by RAW 264.7 cells” value in the experiment on RAW 264.7 cells is listed as “did not increase nitrite production”.

Broadly, the Kd is a measure of binding affinity in units of concentration.
